From US20090280138A1 (OXFORD BIOMEDICA UK, published 2009)

Assays:
Test in all cases: iTopia iScore
[1] = target: T1, MHC class I molecule A*0301 (biotin (bound to streptavidin-coated plate))
T1 construct: also called A3; HLA-A3
Method: (§1) The 9 mers were tested for Peptide Binding, Off Rate and Affinity using iTopia Epitope Discovery System in accordance with the manufacturer's instructions. Briefly, 96 well microtitre plates coated with MHC molecules representing different MHC alleles are used to identify candidate peptides. […] Determinations are performed in duplicate using an ELISA plate reader and included allele specific positive controls.
(§2) Finally, multiparametric analysis is performed on the results from these assays and an iScore is generated. The iScore represents a measure of the overall quality of peptide-MHC binding, enabling candidate peptides to be ranked in order of binding quality and allowing rational prioritisation of peptides for functional cellular follow-up studies.

[2] = target: T2, MHC class I molecule B*0702 (biotin (bound to streptavidin-coated plate))
T2 construct: also called B7; HLA-B7
Method: as §1, §2

[3] = target: T3, MHC class I molecule A*0101 (biotin (bound to streptavidin-coated plate))
T3 construct: also called A1; HLA-A1
Method: as §1, §2

[4] = target: T4, MHC class I molecule A*0201 (biotin (bound to streptavidin-coated plate))
T4 construct: also called A2; HLA-A2
Method: as §1, §2

Row | Binder | iScore [1] | iScore [2] | iScore [3] | iScore [4]
1 | VPTDLPAYV [5T4 9-mer peptide 43 VPTDLPAYV] | 0 | 0 | 0.098 | 0.059
2 | RGPAAGDGR [5T4 9-mer peptide 4 RGPAAGDGR] | 0 | 0 | 0 | 0.032
3 | PDQCPALCE [5T4 9-mer peptide 30 PDQCPALCE] | 0 | 0 | 0 | 0
4 | TDLPAYVRN [5T4 9-mer peptide 44 TDLPAYVRN] | 0 | 0 | 0 | 0
5 | PAAGDGRLR [5T4 9-mer peptide 5 PAAGDGRLR] | 0 | 0 | 0 | 0
6 | VSSSSPTSS [5T4 9-mer peptide 15 VSSSSPTSS] | 0 | 0 | 0 | 0
7 | PLPDQCPAL [5T4 9-mer peptide 29 PLPDQCPAL] | 0 | 0 | 0 | 0.88
8 | SASSFSSSA [5T4 9-mer peptide 19 SASSFSSSA] | 0 | 0 | 0 | 0.045
9 | TSSASSFSS [5T4 9-mer peptide 18 TSSASSFSS] | 0 | 0 | 0 | 0.037
10 | VRNLFLTGN [5T4 9-mer peptide 47 VRNLFLTGN] | 0 | 0 | 0 | 0
11 | APFLASAVS [5T4 9-mer peptide 23 APFLASAVS] | 0 | 0.176 | 0 | 0.041
12 | LPAYVRNLF [5T4 9-mer peptide 45 LPAYVRNLF] | 0 | 0.389 | 0 | 0
13 | PALCECSEA [5T4 9-mer peptide 32 PALCECSEA] | 0 | 0 | 0 | 0.082
14 | SPTSSASSF [5T4 9-mer peptide 17 SPTSSASSF] | 0 | 0.335 | 0 | 0
15 | NLTEVPTDL [5T4 9-mer peptide 41 NLTEVPTDL] | 0 | 0 | 0 | 0.253
16 | RTVKCVNRN [5T4 9-mer peptide 37 RTVKCVNRN] | 0 | 0 | 0 | 0
17 | LCECSEAAR [5T4 9-mer peptide 33 LCECSEAAR] | 0 | 0 | 0 | 0
18 | GGCSRGPAA [5T4 9-mer peptide 2 GGCSRGPAA] | 0 | 0.012 | 0 | 0.016
19 | SSFSSSAPF [5T4 9-mer peptide 20 SSFSSSAPF] | 0 | 0 | 0 | 0.037
20 | LVLLGWVSS [5T4 9-mer peptide 12 LVLLGWVSS] | 0 | 0 | 0 | 0.122
21 | SEAARTVKC [5T4 9-mer peptide 35 SEAARTVKC] | 0 | 0 | 0 | 0
22 | DGRLRLARL [5T4 9-mer peptide 7 DGRLRLARL] | 0 | 0.038 | 0 | 0
23 | QCPALCECS [5T4 9-mer peptide 31 QCPALCECS] | 0 | 0 | 0 | 0

Row | Binder | iScore [1] | iScore [2] | iScore [3] | iScore [4]
24 | FSSSAPFLA [5T4 9-mer peptide 21 FSSSAPFLA] | 0 | 0 | 0.023 | 0.116
25 | LLGWVSSSS [5T4 9-mer peptide 13 LLGWVSSSS] | 0 | 0 | 0 | 0.243
26 | QPPLPDQCP [5T4 9-mer peptide 28 QPPLPDQCP] | 0 | 0 | 0 | 0
27 | SSSPTSSAS [5T4 9-mer peptide 16 SSSPTSSAS] | 0 | 0 | 0 | 0
28 | CVNRNLTEV [5T4 9-mer peptide 39 CVNRNLTEV] | 0 | 0.093 | 0 | 0.05
29 | GWVSSSSPT [5T4 9-mer peptide 14 GWVSSSSPT] | 0 | 0 | 0 | 0.044
30 | FLASAVSAQ [5T4 9-mer peptide 24 FLASAVSAQ] | 0 | 0 | 0 | 0.134
31 | LALVLLGWV [5T4 9-mer peptide 11 LALVLLGWV] | 0 | 0 | 0 | 0.237
32 | NRNLTEVPT [5T4 9-mer peptide 40 NRNLTEVPT] | 0 | 0 | 0 | 0
33 | ECSEAARTV [5T4 9-mer peptide 34 ECSEAARTV] | 0 | 0 | 0 | 0
34 | AVSAQPPLP [5T4 9-mer peptide 26 AVSAQPPLP] | 0 | 0 | 0 | 0.062
35 | VKCVNRNLT [5T4 9-mer peptide 38 VKCVNRNLT] | 0 | 0 | 0 | 0
36 | TEVPTDLPA [5T4 9-mer peptide 42 TEVPTDLPA] | 0 | 0 | 0 | 0
37 | CSRGPAAGD [5T4 9-mer peptide 3 CSRGPAAGD] | 0 | 0 | 0 | 0
38 | ARLALVLLG [5T4 9-mer peptide 10 ARLALVLLG] | 0 | 0 | 0 | 0.143
39 | RLRLARLAL [5T4 9-mer peptide 8 RLRLARLAL] | 0.027 | 1 | 0 | 0.216
40 | AARTVKCVN [5T4 9-mer peptide 36 AARTVKCVN] | 0 | 0.059 | 0 | 0.115
41 | MPGGCSRGP [5T4 9-mer peptide 1 MPGGCSRGP] | 0 | 0 | 0 | 0
42 | SSAPFLASA [5T4 9-mer peptide 22 SSAPFLASA] | 0 | 0 | 0 | 0.389
43 | AYVRNLFLT [5T4 9-mer peptide 46 AYVRNLFLT] | 0 | 0 | 0 | 0.18
44 | SAQPPLPDQ [5T4 9-mer peptide 27 SAQPPLPDQ] | 0 | 0 | 0 | 0
45 | ASAVSAQPP [5T4 9-mer peptide 25 ASAVSAQPP] | 0 | 0 | 0 | 0
46 | AGDGRLRLA [5T4 9-mer peptide 6 AGDGRLRLA] | 0 | 0 | 0 | 0.023
